Assay results reported in the supplement of paper PMC10724198.
± gives the standard deviation of the averaged measurements.

What follows are sequences tested on Saccharomyces cerevisiae (assay: protein stability index of tFT-peptide fusion (C-terminal peptide) (PSI (0-1 scale)); higher = more stable (slower turnover)). Conditions: genetic background: wild type; temperature: 30 C.
Experimental: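 MPS profiling in S. cerevisiae of the yeast C-terminome library: the last 12 aa of each annotated ORF are fused to the C-terminus of a sfGFP-mCherry timer, after a GGGS linker. Cells are FACS-sorted into 8 mCherry/sfGFP bins and deep-sequenced. PSI runs from 0 (unstable) to 1 (stable); wild type and das1Δ backgrounds, two technical replicates each.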

Sequence | protein stability index
FCIFNNVVFPML [RRT1 C-terminal 12 aa] | 0.7002 ± 0.0035
FCMGVAAFVTTA [UTP21 C-terminal 12 aa] | 0.497 ± 0.0075
FDDDLTAQLYYP [TDA8 C-terminal 12 aa] | 0.744 ± 0.043
FDTSAQSDRKHS [DCV1 C-terminal 12 aa] | 0.692 ± 0.018
FEDCCRWNEKQG [HIS6 C-terminal 12 aa] | 0.694 ± 0.016
FENGGKLKEVDK [MDM35 C-terminal 12 aa] | 0.7211 ± 0.0027
FFFPLFLFLYHL [YHR180W-A C-terminal 12 aa] | 0.306 ± 0.0032
FFMIMVMVINFI [FIG2 C-terminal 12 aa] | 0.199 ± 0.0042
FFTKLFKKKSSR [MSC3 C-terminal 12 aa] | 0.6832 ± 0.0021
FFVFLFWWIFLK [SEC22 C-terminal 12 aa] | 0.131 ± 0.015
FGQDGCLYIYNQ [YHR045W C-terminal 12 aa] | 0.698 ± 0.021
FHTLENHLKGNS [ADR1 C-terminal 12 aa] | 0.731 ± 0.064
FIAQAEAEAETD [GRS1 C-terminal 12 aa] | 0.669 ± 0.017
FIRKIYSAIKVE [TMN2 C-terminal 12 aa] | 0.268 ± 0.016
FKIFAKLFCTRK [HLR1 C-terminal 12 aa] | 0.6936 ± 0.0041
FKKSVDQMNAST [PSY2 C-terminal 12 aa] | 0.691 ± 0.017
FLSNEPTFLGCV [YPL135C-A C-terminal 12 aa] | 0.722 ± 0.033
FLVNTTNKKESD [YIL092W C-terminal 12 aa] | 0.693 ± 0.024
FMSNTLFNSSLV [YPR003C C-terminal 12 aa] | 0.693 ± 0.037
FQRRSISGLGDL [INP1 C-terminal 12 aa] | 0.676 ± 0.031
FQTITGEEKEKK [ECM16 C-terminal 12 aa] | 0.728 ± 0.023

Sequence | protein stability index
FRSQRLHMDSKP [BUD27 C-terminal 12 aa] | 0.6682 ± 0.0053
FSALMGESDDEE [TIF4631 C-terminal 12 aa] | 0.678 ± 0.047
FSTWDIADKQEA [PMT2 C-terminal 12 aa] | 0.732 ± 0.023
FSVEQREKPSNN [GRX6 C-terminal 12 aa] | 0.69949 ± 0.00033
FTPSNQSHGNFY [TEC1 C-terminal 12 aa] | 0.662 ± 0.007
FVYKGVRKPKRN [SEN15 C-terminal 12 aa] | 0.778 ± 0.1
FYHVFDEPRYYL [CWH43 C-terminal 12 aa] | 0.7087 ± 0.0018
GAGALAAAAMLL [CWP2 C-terminal 12 aa] | 0.665 ± 0.027
GASAEDNTHPDE [NAB6 C-terminal 12 aa] | 0.681 ± 0.046
GDENFVILEFEC [OAZ1 C-terminal 12 aa] | 0.732 ± 0.036
GDIIKLRESVNA [YJL215C C-terminal 12 aa] | 0.73 ± 0.05
GDLVNAIMSLSK [EGD2 C-terminal 12 aa] | 0.696 ± 0.025
GEASTGNRLSFK [BNI1 C-terminal 12 aa] | 0.72 ± 0.022
GFLGIRWGPRKD [TIM21 C-terminal 12 aa] | 0.6861 ± 0.006
GFQATVGKRRRM [SUI3 C-terminal 12 aa] | 0.703 ± 0.0081
GGIRKISGSIKK [CDC14 C-terminal 12 aa] | 0.667 ± 0.037
GGSRGGFRGGRR [GAR1 C-terminal 12 aa] | 0.707 ± 0.041
GHLSSSRRRLRT [SUV3 C-terminal 12 aa] | 0.7 ± 0.034
GIDVHYVFRTYH [CIN10 C-terminal 12 aa] | 0.6311 ± 0.0031
GKTTYSEVWAGY [VVS1 C-terminal 12 aa] | 0.741 ± 0.013
GLFPSNYVSLGN [ABP1 C-terminal 12 aa] | 0.721 ± 0.01

Sequence | protein stability index
GLLLPLCHRKRS [YOR012W C-terminal 12 aa] | 0.411 ± 0.039
GLRVANPDSDPE [YDR239C C-terminal 12 aa] | 0.721 ± 0.081
GLSLSFSKKLDL [DSN1 C-terminal 12 aa] | 0.671 ± 0.026
GSTSCPLLRLSR [YHR073C-B C-terminal 12 aa] | 0.685 ± 0.013
GYAKTWSIASAN [CTT1 C-terminal 12 aa] | 0.674 ± 0.028
GYCKVHPVSDSK [ASI1 C-terminal 12 aa] | 0.656 ± 0.036
HAGTRPVLLLQK [YKL053W C-terminal 12 aa] | 0.674 ± 0.04
HCTVVLPSILKR [YHR217C C-terminal 12 aa] | 0.705 ± 0.0033
HDHHNDVPEAPV [RAD1 C-terminal 12 aa] | 0.692 ± 0.022
HEEVKHTADTVD [CDC37 C-terminal 12 aa] | 0.67 ± 0.018
HEWKTSINAIST [SWT1 C-terminal 12 aa] | 0.727 ± 0.079
HFKTLVEAFTRN [VPS52 C-terminal 12 aa] | 0.714 ± 0.047
HFQYKGKPSRRF [BUB1 C-terminal 12 aa] | 0.685 ± 0.035
HISLKCIVYKEY [YER135C C-terminal 12 aa] | 0.665 ± 0.016
HKGAVCVALNDV [LST8 C-terminal 12 aa] | 0.696 ± 0.051
HKGNGTDKVFVF [AIM33 C-terminal 12 aa] | 0.693 ± 0.017
HKNHSVPRLIQV [YCL068C C-terminal 12 aa] | 0.654 ± 0.048
HKQCDSLLDRLK [PTA1 C-terminal 12 aa] | 0.7053 ± 0.0067
HLEKKEPKSRKK [YDL129W C-terminal 12 aa] | 0.689 ± 0.03
HLTKLCIFPGLP [YLR282C C-terminal 12 aa] | 0.70209 ± 0.00069
HLYDHILEKMVK [CNM67 C-terminal 12 aa] | 0.7 ± 0.018

Sequence | protein stability index
HLYFQNPPPAMC [HOT13 C-terminal 12 aa] | 0.728 ± 0.031
HNLHSYEKRLHN [IMD2 C-terminal 12 aa] | 0.742 ± 0.066
HQFCEQKYVETI [RRT16 C-terminal 12 aa] | 0.664 ± 0.0071
HSRASVQSHPQH [DAL80 C-terminal 12 aa] | 0.699 ± 0.03
HSSYDRPMIIKN [UBP15 C-terminal 12 aa] | 0.662 ± 0.025
IADHLVGRKRVD [PFK2 C-terminal 12 aa] | 0.712 ± 0.059
IAEENSSTESLF [CIS1 C-terminal 12 aa] | 0.726 ± 0.065
ICCQVAKSLLKI [YGL074C C-terminal 12 aa] | 0.688 ± 0.027
IDDKSDQEESLQ [MAF1 C-terminal 12 aa] | 0.664 ± 0.067
IDLIAFLRNGPL [GPR1 C-terminal 12 aa] | 0.749 ± 0.088
IDLLAENTKTPI [COA1 C-terminal 12 aa] | 0.697 ± 0.018
IEQEAKQRERNQ [COA6 C-terminal 12 aa] | 0.701 ± 0.02
IFCFDNYRSCYC [YKL031W C-terminal 12 aa] | 0.678 ± 0.038
IFKSLIAKKVQS [BPL1 C-terminal 12 aa] | 0.433 ± 0.033
IFLMKKAYDLQI [EFM1 C-terminal 12 aa] | 0.657 ± 0.02
IGIGTHDLHFGS [YHR052W-A C-terminal 12 aa] | 0.7123 ± 0.0016
IGKQKCFIIEMR [MSY1 C-terminal 12 aa] | 0.679 ± 0.0098
IHFGETSNYSFD [SMC5 C-terminal 12 aa] | 0.698 ± 0.017
IHNDIPSHRKLK [FIR1 C-terminal 12 aa] | 0.6589 ± 0.0014
